In article PMC11987610, “Pseudomonas aeruginosa PfpI is a methylglyoxalase” (The Journal of Biological Chemistry, 2025):
Each block holds one molecule with its values, some of them ahead of it.

Tests used:
YhbO = biological target: T1, YhbO (Escherichia coli, UniProt P45470); experiment: 1D 1H NMR of end products; format: biochemical; details: 1 mM MGO, 20 μg enzyme, 50 mM PBS with 5% DMSO-d6, overnight, 4 °C
T1 construct: full-length ORF with N-terminal His6 tag (pET-19m), E. coli Rosetta (DE3); tagged mass 20,858 Da
T1 sequence (P45470 1-172): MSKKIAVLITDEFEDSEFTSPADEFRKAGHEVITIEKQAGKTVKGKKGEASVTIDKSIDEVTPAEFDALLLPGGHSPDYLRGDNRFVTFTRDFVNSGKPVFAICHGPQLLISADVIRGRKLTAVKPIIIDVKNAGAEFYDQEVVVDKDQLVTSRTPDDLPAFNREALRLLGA

[1] = biological target: Pseudomonas aeruginosa PfpI (PA0355), recombinant, N-terminal His6 tag (P. aeruginosa PAO1); experiment: AUC; sedimentation velocity; 25 mM Tris-HCl (pH 8.0), 100 mM NaCl; 0.5, 1.0 and 2.0 mg/ml PfpI; 20 C, 24 h
[2] = substrate: CC(=O)C=O; experiment: colorimetric lactate assay after heat quench, Michaelis-Menten fit; format: biochemical, Pseudomonas aeruginosa; details: PBS, 37 °C, 0.2 μM enzyme, glutathione-independent

Molecule: CC(=O)C=O [methylglyoxal]
1D 1H NMR of end products (YhbO): both enzymes quantitatively convert MGO to lactate

stoichiometry N [1]: 2
Molecule: Pseudomonas aeruginosa PfpI (PA0355), recombinant, N-terminal His6 tag (enzyme)

B1: PfpI (Pseudomonas aeruginosa PAO1) (protein)
chain: MTQSLHGKVVAALVTDGFEQVELTGPKKALEDAGATVRILSDKAGEVRGWNHHQPAEAFRVDGTFEDASLDDYDALLLPGGVINSDQIRSLAKAQELAIRAEQASKPVAVICHGAWLLISAGLVQGRTLTSWPSLKDDINNAGGHWVDQEVAVDGKLVSSRKPEDIPAFNRRFIEILAG
notes: full-length ORF (540 bp) with N-terminal His6 tag (pET-19m), E. coli Rosetta (DE3); tagged mass 21,246 Da
Km [2]: 369 ± 139 µM
kcat [2]: 103 ± 22 min⁻¹
